Positions count from the first letter of the chain named. Names may count otherwise. “And” between values parts separate entries of the source, which are not always exact repeats. Equal entries are not always repeated.

These results are taken from patent US20200377595A1 (Chugai, published 2020).

One assay concerns the target T1, human CD137 (human, UniProt Q07011 24-186).
T1 construct: soluble Biacore analyte; also called hCD137; recombinant human CD137
As to the kind of experiment: ECL, IgG with biotinylated antigen on streptavidin plate, log axis.

Another assay has as its target T2, recombinant human CD3 (human).
T2 construct: also called hCD3
As to the kind of experiment: SPR, Ab captured by anti-Fc, 37 C.

For assay [1], the target named is T3, biotin labeled human IgG1 Fc (human, UniProt P01857-1 104-330 = IgG part, limits assumed, biotin-labeled).
T3 construct: domain: Fc region; control antigen; also called human Fc
The assay can be described thus: bead ELISA, IgG.

Assay [2] concerns the target T4, biotin-labeled cynomolgus monkey CD137 fused to human IgG1 Fc fragment (cynomolgus monkey; human, UniProt Q07011 24-186, limits assumed, biotin-labeled).
T4 construct: also called cyno CD137-Fc; not shown: human IgG1 Fc fragment
T4 chain: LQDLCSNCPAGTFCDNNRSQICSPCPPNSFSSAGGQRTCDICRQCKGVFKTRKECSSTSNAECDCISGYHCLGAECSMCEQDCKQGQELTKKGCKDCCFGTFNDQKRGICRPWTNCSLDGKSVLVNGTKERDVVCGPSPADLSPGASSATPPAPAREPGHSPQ
As to the kind of experiment: ELISA, IgG.

For assay [3], the target named is T5, biotin-labeled human CD137 fused to human IgG1 Fc fragment (human, biotin-labeled).
T5 construct: also called human CD137-Fc; biotin-human CD137-Fc
As to the kind of experiment: bead ELISA; no competitor.

Assay [4] has as its target biotinylated CD3 epsilon epitope peptide. As to the kind of experiment: SPR, method of Ref. Ex. 3, one-arm Ab.

B1: dBBDu_011 (antibody, V domains shown)
VH: QVQLVESGGGLVQPGRSLRLSCAASGFTFSNAWMHWVRQAPGKGLEWVAQIKDKSSLYNTYYAPSVKGRFTISRDDSKNSIYLQMNSLKTEDTAVYYCRYVHYGASYGFLFAGYGVDAWGQGTTVTVSS
VL: DIVMTQSPLSLPVTPGEPASISCRSSQSLVHSNRNTYLHWYQQKPGQAPRLLIYKVSNRFSGVPDRFSGSGSGTDFTLKISRVEAEDVGVYYCGQGTQVPYTFGQGTKLEIK
notes: converted to IgG with human H and L chain constant domains; also called clone 011
B1: the binding result with human CD137 is “binds”.

B2: GPC3/CD137xCD3 trispecific antibody (other)
VH 1: QVQLQQWGAGLLKPSETLSLTCAVYGGSFSGYYWSWIRQSPEKGLEWIGEINHGGYVTYNPSLESRVTISVDTSKNQFSLKLSSVTAADTAVYYCARDYGPGNYDWYFDLWGRGTLVTVSS
VL 1: EIVLTQSPATLSLSPGERATLSCRASQSVSSYLAWYQQKPGQAPRLLIYDASNRATGIPARFSGSGSGTDFTLTISSLEPEDFAVYYCQQRSNWPPALTFGGGTKVEIK
VH 2: QVQLVESGGGLVQPGRSLRLSCAASGFTFSNAWMHWVRQAPGKGLEWVAQIKDRANSYNTYYAESVKGRFTISRDDSKNSIYLQMNSLKTEDTAVYYCRYVHYTTYAGSSFSYGVDAWGQGTTVTVSS
VL 2: B1 VL with S28P
VH 3: QVQLVQSGAEVKKPGASVTVSCKASGYTFTDYEMHWIRQPPGEGLEWIGAIDGPTPDTAYSEKFKGRVTLTADKSTSTAYMELSSLTSEDTAVYYCTRFYSYTYWGQGTLVTVSS
VL 3: B1 VL with S28P
notes: mAb AB made by CrossMab and Fab-arm exchange; silent Fc (L235R, G236R, S239K, N297A); also called anti-GPC3/CD137xCD3
For the molecule B2, in the assay with recombinant human CD3, the Kd is 19.7 nM, the koff worked out at 0.00161 s⁻¹ and the kon is 81800 M⁻¹ s⁻¹.

B3: DADU01_3#002 (antibody, IgG1, V domains shown)
VH: QVQLVESGGGLVQPGRSLRLSCAASGFTFSNAWMHWVRQAPGKGLEWVAQIKDKQNLYNAYYAESVKGRFTISRDDSKNSIYLQMNSLKTEDTAVYYCHYVHYASASTVLPAFGVDAWGQGTTVTVSS
VL: B1 VL
notes: IgG1; also called dBBDu124
Consider B3, for which the RLU in assay [1] amounted to 1920 RLU.

B4: DXDU01_3#094 (antibody, IgG1, V domains shown)
VH: B3 VH with Q55G, L57A, N59A, E64P, S107A, T108G, V109G, A112G
VL: B1 VL
notes: IgG1; also called dBBDu121
On to B4, for which the RLU in assay [1] turned out to be 2370 RLU.

B5: DXDU01_3#051 (antibody, IgG1, V domains shown)
VH: B3 VH with K54R, Q55G, N56Q, L57Q, E64P, T108S, A112G, F113Y
VL: B1 VL
notes: IgG1; also called dBBDu127
B5 gave an RLU in assay [1] of 2910 RLU.

B6: dBBDu181 (antibody, IgG1, V domains shown)
VH: B3 VH with V48I, K54R, Q55G, L57N, A60N, E64P, S105T, V109L, P111G, F113Y
VL: B1 VL
notes: IgG1
Turning to B6, the binding result in assay [2] is reported as “binds”. In assay [3], this molecule gave an ELISA signal of 3240.

B7: DADU01_3#018 (antibody, IgG1, V domains shown)
VH: B3 VH with K54R, Q55A, L57S, E64P, A104S, S105A, V109L, A112S
VL: B1 VL
notes: IgG1; also called dBBDu123
As to B7, in assay [1], the RLU is 1900 RLU.

B8: DXDU01_3#019 (antibody, IgG1, V domains shown)
VH: QVQLVESGGGLVQPGRSLRLSCAASGFTFSIAWMHWVRQAPGKGLEWVAQIKDKVNGYTAYYAESVKGRFTISRDDSKNSIYLQMNSLKTEDTAVYYCRYVHYAAYYDVLGYGGVDAWGQGTTVTVSS
VL: B1 VL
notes: IgG1; also called dBBDu125
Molecule B8 showed an RLU in assay [1] of 3260 RLU.

B9: DADU01_3#001 (antibody, IgG1, V domains shown)
VH: B8 VH with K54R, G57A, T59E, E64P, A105S, V109L
VL: B1 VL
notes: IgG1; also called dBBDu_126; dBBDu126
For the molecule B9, the RLU in assay [1] is 1760 RLU.

B10: CE115HA000 V11L/D72A/L78I/D101Q with GGSGGSGGS inserted between Kabat 99 and 100, one-arm antibody (antibody)
chain 1: QVQLVESGGGLVQPGRSLRLSCAASGFTFSNAWMHWVRQAPGKGLEWVAQIKAKSNNYATYYAESVKGRFTISRADSKNSIYLQMNSLKTEDTAVYYCRYVHYGAGGSGGSGGSYYGVQAWGQGTTVTVSSASTKGPSVFPLAPSSKSTSGGTAALGCLVKDYFPEPVTVSWNSGALTSGVHTFPAVLQSSGLYSLSSVVTVPSSSLGTQTYICNVNHKPSNTKVDKKVEPKSCDKTHTCPPCPAPEAAGGPSVFLFPPKPKDTLMISRTPEVTCVVVDVSHEDPEVKFNWYVDGVEVHNAKTKPREEQYASTYRVVSVLTVLHQDWLNGKEYKCKVSNKALPAPIEKTISKAKGQPREPQVYTLPPSRCELTKNQVSLSCAVKGFYPSDIAVEWESNGQPENNYKTTPPVLDSDGSFFLVSKLTVDKSRWQQGNVFSCSVMHEALHNHYTQKSLSLSPDYKDDDDK
chain 2: EPKSSDKTHTCPPCPAPELLGGPSVFLFPPKPKDTLMISRTPEVTCVVVDVSHEDPEVKFNWYVDGVEVHNAKTKPREEQYNSTYRVVSVLTVLHQDWLNGKEYKCKVSNKALPAPIEKTISKAKGQPREPQVCTLPPSRDELTKNQVSLWCLVKGFYPSDIAVEWESNGQPENNYKTTPPVLDSDGSFFLYSKLTVDKSRWQQGNVFSCSVMHEALHNRYTQKSLSLSP
chain 3: DIVMTQSPLSLPVTPGEPASISCRSSQSLVHSNRNTYLHWYQQKPGQAPRLLIYKVSNRFSGVPDRFSGSGSGTDFTLKISRVEAEDVGVYYCGQGTQVPYTFGQGTKLEIKRTVAAPSVFIFPPSDEQLKSGTASVVCLLNNFYPREAKVQWKVDNALQSGNSQESVTEQDSKDSTYSLSSTLTLSKADYEKHKVYACEVTHQGLSSPVTKSFNRGEC
As for B10, in assay [4], the Kd was 43.9 nM and 35.4 nM.

B11: CE115HA000 one-arm antibody (antibody, human IgG1, kappa, L234A L235A, N297A)
heavy: QVQLVESGGGVVQPGRSLRLSCAASGFTFSNAWMHWVRQAPGKGLEWVAQIKAKSNNYATYYAESVKGRFTISRDDSKNSLYLQMNSLKTEDTAVYYCRYVHYGAYYGVDAWGQGTTVTVSSASTKGPSVFPLAPSSKSTSGGTAALGCLVKDYFPEPVTVSWNSGALTSGVHTFPAVLQSSGLYSLSSVVTVPSSSLGTQTYICNVNHKPSNTKVDKKVEPKSCDKTHTCPPCPAPEAAGGPSVFLFPPKPKDTLMISRTPEVTCVVVDVSHEDPEVKFNWYVDGVEVHNAKTKPREEQYASTYRVVSVLTVLHQDWLNGKEYKCKVSNKALPAPIEKTISKAKGQPREPQVYTLPPSRCELTKNQVSLSCAVKGFYPSDIAVEWESNGQPENNYKTTPPVLDSDGSFFLVSKLTVDKSRWQQGNVFSCSVMHEALHNHYTQKSLSLSPDYKDDDDK
chain: B10 chain 2
light: B10 chain 3
notes: one-arm antibody
B11: binding in assay [4] was characterised by a dissociation constant (Kd) of 110 nM.

B12: CE115HA000 V11L/D72A/L78I/D101Q without insertion, one-arm antibody (antibody, human IgG1, kappa, L234A L235A, N297A, name in Kabat numbering)
heavy: B11 heavy with V11L, D75A, L81I, D110Q
chain: B10 chain 2
light: B10 chain 3
notes: one-arm antibody; 'No insertion' read as the altered H chain without linker; also called No insertion
Turning to B12, the Kd in assay [4] was 6.96 nM.
